This is an account of results in patent publication US20060045883A1, “Anti-cancer vaccines” (priority 2004, published 2006).

The target in the experiment is HLA-A2.1 (HLA-A*0201) on the surface of T2 cells (human).

KLGEFYNQMM (modifications not checked) [Influenza B nucleoprotein peptide (aa 85-94; Flu), P04665 85-94]: the Median Channel of Fluorescence of HLA-A2 Expression on T2 is 194.
